Here are results for one substance from paper PMC10521137.

The target in this experiment is Rad53 FHA1 domain, 1-165 (UniProt P22216). The experiment is described as follows: biotin-peptide streptavidin pulldown, Coomassie stain. Conditions: reference: unphosphorylated peptide (peptide 1); sites T402.

Turning to “Pol1 (catalytic subunit of DNA polymerase alpha) 393-412 (from UniProt P13382) pT402 peptide (peptide 2)”, the “binding against the reference” value is reported as “gained”.
